Laboratory results: the nanobody polyreactivity screen of Harvey et al. (2022)

Assay: yeast display, Sf9 membrane polyspecificity reagent, FACS + sequencing; frameworks hold sequencing errors
In short: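 A synthetic nanobody library was expressed on Saccharomyces cerevisiae BJ5465 by galactose induction for 36–48 hours. The library was stained for 1 hour at 4 °C with 10% biotinylated, detergent-solubilized Sf9 membrane reagent and enriched with streptavidin microbeads before FACS. Low and high (top ~1%) gates were set on anti-HA fluorescence for expression and streptavidin fluorescence for reagent binding, and each polyreactivity label reflects the gate of origin.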

Sequence	polyreactivity (PSR sort gate)
QVQLVESGGGLVQAGGSLRLSCAGYGLTFEYYTMGWYRQAPGKGRELVAAITSSGGSTYYADSVKGRFTISRDNSKNTFYLQMISLKPEDTAVYYCNAYLTYEFPSYDYWGQGTQVTVSS	low polyreactivity
QVQLVESGGGLVQAGGSLRLSCAPCGSIFPAYTMGWYRRAPGKERELVAAISRRGGSTYYADCVKGRFTISRDNEKNTVYLQMNRLKPEDTAVYDCAKVPDYRFEYWGQGSQVTVSS	high polyreactivity
QVQLVESGGGLVQAGGSLRLSCAPSARTFVYNAMGWYRQAPGKERELVAAIDGGGDRTYYADSVKGRFTISRDNAKYTVYIQMYSLKPEDTAVYYCARDPGDTYYYSYPEGDYWGQGTQVTVSS	low polyreactivity
QVQLVESGGGLVQAGGSLRLSCAPSGFIFVSNAMVWYRQEPGKERELFADITSRGDSTYYADSVKGRFTISRDNAKNTVYLQMNSLKPEDTAVYYCAVDQLYFPWSFSWYGYWGQGTQVTVSS	low polyreactivity
QVQLVESGGGLVQAGGSLRLSCAPSGFIITYFGMGWYRQAPGKERELVAAISSRGGSTYYADSVKGRFTISRDTAKNTVYLQMNSLKPEDTAVYYFNTDSYRWTFSNRRYDYWGQGTQVTVSS	high polyreactivity
QVQLVESGGGLVQAGGSLRLSCAPSGFSIIGNAMGWYRQAPGKERELVAAISRRGGSTYYADSVKGRFTISRDNAKNTVYLQLNSLKPEDTAVYYCATDPGARVHYPTGDYWGQGTQVTVSS	high polyreactivity
QVQLVESGGGLVQAGGSLRLSCAPSGFTFRYYAMGWYRQAPGKERELVAAISWSVGSTYYADSVKGRFTISRDNAKNTVYLQMNSLKPEDTAVYYCNAAWPGYISNRLGYDYWGQGTQVTVSS	high polyreactivity
QVQLVESGGGLVQAGGSLRLSCAPSGFTFVFYAMGWYRQAPGKERELVAAISSRGGSTYYADSVKGRFTISRDNAKNTVYLQMNSLKPEDTAVYYCNVVSTYWTTYEEYYWGQGTQVTVSS	high polyreactivity
QVQLVESGGGLVQAGGSLRLSCAPSGFTFVYYAMGWYRQAPGKERELVASISGGGRTYYADSVKGRFTISRDNAKNTVYLQMNSLKPEDTAVYYCAAEQYIRPYYRWVWVSYGYWGQGSQVTVSS	high polyreactivity
QVQLVESGGGLVQAGGSLRLSCAPSGFTFYPYAMGWSRQAPGKERELVAAIRYSGGSTYYADSVKGRFTISRDNAKNTVYLQMNSLKPEATAVYYCAADGSNPWYRNSWSRYRFGYWGQGTQVTVSS	high polyreactivity
QVQLVESGGGLVQAGGSLRLSCAPSGGIFGRNAMGWYRQAPGKESELVAGITNGGSTTYADSVKGRFTISRDNAKNTVYLQMNSLKPEDTAVYYCAVQLYRRWPYYQTHGYDYWGQGTQVTVTS	low polyreactivity
QVQLVESGGGLVQAGGSLRLSCAPSGGTFLSNVMVWYRQAPGKERELVAAISSRGGSTYFADSVKGRFTISRDNAKNNVYFQMNSLKPVDTAVYYCNVRAAHYKDRQYDYWGQGTQGTVSS	high polyreactivity
QVQLVESGGGLVQAGGSLRLSCAPSGIIFPEYDMGWYRQPPGKERELVAAITKSDGRTYYADSVKGRFTISRDNAKNSVYLQMNSLKPEDTAVYYCNADPSVVAYVGFVSWGQGTQVTLSS	low polyreactivity
QVQLVESGGGLVQAGGSLRLSCAPSGITFQRYVMGWYRQAPGKERELVAAISFSGSSTYYADSVKGRFTISRDNAKNTVYLQMNSLKPEDTAVYYCAADGSVPKYVPYPRYYGYGYWGQGSQVTVSS	high polyreactivity
QVQLVESGGGLVQAGGSLRLSCAPSGITFRYYAMGWYRQAPGKERELVAAITRSGSTTYADSVKGRFTISRDNAKNTVYLQMNSLKPEVTAVYYCAVDYYYLTGGVDYWGQGTQVTVSS	low polyreactivity
QVQLVESGGGLVQAGGSLRLSCAPSGLTIGHYAMGWYRQAPGKERELVAAISSGGSTYYADSVKGRFTISRDNAKNTVYLQMNSLKPEDTAVYYCAAVTVGTAYYARTFYYWGQGTQVTVSS	high polyreactivity
QVQLVESGGGLVQAGGSLRLSCAPSGNIFYINTMGWYRPAPGKERELVAAIDASDGSTYYADSVKGRFTISRDNAKNTVYLQMNSLKPEDTAVYYCATRRGYDSVYYLYTLWYYYWGQGTQVTVSS	low polyreactivity
QVQLVESGGGLVQAGGSLRLSCAPSGNTFWDNAMGWYRQAPGKERELVAAIRWSTGSTHYADSVKGRFTISRDNAKNTVYLQMNSVKPEDTAVYYCDATDYYYYRDKYYGYDYWGQGNQVTVSS	low polyreactivity
QVQLVESGGGLVQAGGSLRLSCAPSGRIFAGYTMGWYRQAPGKERELVAAISWSGGRTYYADSVKGRFTISRDNAKNTVYLQMNSLKPEDTAVYYCAKDGRYYSHYNYWGQGTQVTVSS	high polyreactivity
QVQLVESGGGLVQAGGSLRLSCAPSGRIFDYYAMGWYRQAPGKESELVAAISGSGGSTYYADSVKGRFTISRDNAKNTVYLQMNSLKPEHTAVYYCAYGYLYCYDYWGQGTQVTVSS	low polyreactivity
QVQLVESGGGLVQAGGSLRLSCAPSGRIFGTNDMGWYRQAPGKERELVADITSGGSTNYADSVKGSFTISRDNAMNTVYLPMNSLKPEDSAVYYCNARHHNKVARFDYWGQGTQVTVSS	low polyreactivity
QVQLVESGGGLVQAGGSLRLSCAPSGRIFPYYAMGRYRQAPGKERELVATITASSGSTYYADSVKGRFTISRDNAKNTVYLQMNSLKPEDTAVYYCAAGFVYRPGSYIRFDYWGQGTQVTVSS	high polyreactivity

Sequence	polyreactivity (PSR sort gate)
QVQLVESGGGLVQAGGSLRLSCAPSGRIFQYNAMGWYRQAPGKERELGAAISNSTTRTYYADSVKGRFTISRDNAKNTVYLQMNSLKPEDTGVYYCAARGYFWSSYKYDYWVQGTQVTVSS	high polyreactivity
QVQLVESGGGLVQAGGSLRLSCAPSGRIFWYNAMGWYRQAPGKERELVAGISSSGTRTYYADSVKGRFTISRDNAKNTVYLQMNSLKPEDTAVYYCAAGYDLSYYWYDYWGQGTQVTVSS	low polyreactivity
QVQLVESGGGLVQAGGSLRLSCAPSGRIIGTNAMRWYIQAPRKERELVAAITWSGGSTYYADSVKGRFTISRDNAKNTVFLQMISLKPEDTAVYYCAKDYGYGPRFYYWGQGTQLTVSS	high polyreactivity
QVQLVESGGGLVQAGGSLRLSCAPSGRIIRKNAMGWSRQAPGKERELVAAITSVGSTYYADSVKGRFTISRDNAMNTVYLQMNSLKPEDTAVYYCNALQWSYNRGGYWGQGTQVTVSS	high polyreactivity
QVQLVESGGGLVQAGGSLRLSCAPSGRTFNDYAMGWYRQAPGKESELVAAIDSDGDTNYADSVKGRFTISRDNAKNTVYLQMNSLKPEDTAVYYCNAVRLVVQEWYYYFTFDYWGQGTQVTVSS	low polyreactivity
QVQLVESGGGLVQAGGSLRLSCAPSGRTFNPYALGWYRPAPGKEREFVYADSVKGRFTISRDNAKNTVYLQMNSLKPEDTAVYYCAADVYPDTLHPYNYDYWGQGTQVTLSS	low polyreactivity
QVQLVESGGGLVQAGGSLRLSCAPSGRTFQLYAMGWSRQAPGKERELVAGITITGGSTYYADSVKGRFTISRDNAKNTVYLLMNSLKPEDTAVYYCNKPRFSERYGMGYWGQGTQVTVSS	low polyreactivity
QVQLVESGGGLVQAGGSLRLSCAPSGRTFRRYAMGWYRQAPGKEMEFVAAISRRTASTYYADSVKGRFTISRDNAKNTDYLQMNSLKPEDTAVYYCATKSGYSVGNYRYGYWVQGTQVTVSS	low polyreactivity
QVQLVESGGGLVQAGGSLRLSCAPSGRTFYYYAMGWYRQAPGKERELVAAISRGSTYYADSVKGRFTISRDNAKNTVYLQMNSLKPEDTAVYYCAARYHNYWNRYIYDYWGQGTQVTVSS	high polyreactivity
QVQLVESGGGLVQAGGSLRLSCAPSGSIFLHYAMGRYRQAPGKERDLVAAISRSGGRTYYADSVKGRFTISRDNAKNTVYLQMNSLKPEDTAVYYCAARVPRYRKDSVWAYYYWGQGTQVTVSS	high polyreactivity
QVQLVESGGGLVQAGGSLRLSCAPSGSIFVHNAMGWYRQAPGKERELVAALDGGGGTYYADSVKGRFTISRDNAKNTVYLQMNSLKPEDTAVYYCAARYFHHYWGDLEVEFDYWGQGTQVTVSS	low polyreactivity
QVQLVESGGGLVQAGGSLRLSCAPSGSILRYYAMGWYRQAPGKEREFVAAISWSGTSTYYADSVKGRFTISRDIAKNTVYLQMNSLKPEDTAVYYCAARTYYVPYYYWGQGTQVTVSS	high polyreactivity
QVQLVESGGGLVQAGGSLRLSCAPSGSTFAYYAMGWYRQAPGKEREFVAAISTRGGSTYYADSVKGRFTISRDNAKNTVYFQMNSLKPEDTAVYYCAAGYFIYSWRIRFDYLGQGTQVTVSS	high polyreactivity
QVQLVESGGGLVQAGGSLRLSCAPSGSTFDIYAMGWYRQAPGKERELVARISSGGGRTYYADSVKGRFTISRDNAKNTVYLQMNSLKPEDTAVYYCARDNEPDYYSYPYDYWGQGTQVTVSS	low polyreactivity
QVQLVESGGGLVQAGGSLRLSCAPSGSTFNFNAMGWYRQAPGKERELVAAISKSGTRTYYADSVKGRFTISRDNAKNTVYLQMNSLKPEDTAVYYCAAPAISSYDHGYWGQGTQVTVSS	high polyreactivity
QVQLVESGGGLVQAGGSLRLSCAPSGSTFRLYAMGWYRQAPGKERELVAVISGSGGNTYDADSVKGRFTISRDNAKNTVELQMNSLKPEDTAVDYCAAYSYRDRDDYWGQGTQGTVSS	high polyreactivity
QVQLVESGGGLVQAGGSLRLSCAPSGYIFDIYAMVWYRQAPGKERELVAGITRNGGSTYYADSVKGRFTISRDNAKNTVYLQMNSLKPEDTAVYYCAAGWITRSLYHKYYSWGQGTQVTVSS	high polyreactivity
QVQLVESGGGLVQAGGSLRLSCAPSRYIFYPYAMGWYRQAPGKEREFVATISYRGGSTYYADSVKGRFTISRDNAKNTVYLQMNSLKPEDTAVYYCAAREPWYYGYGDYWGHGTQVTVSS	high polyreactivity
QVQLVESGGGLVQAGGSLRLSCAPYGFTFSKYAMGWYRKAPGKERELVAAITYSGGTTYYADSVKGRFTISRDNAKNTVYLQMNSLKPEDTAVYYCAADTKRRSIRYDYWGQGTQVTVSS	high polyreactivity
QVQLVESGGGLVQAGGSLRLSCAQSGFTKSTYTMGWYRQAPGKESELVAAIRRSGDSTYYGDSVKGRFTISRDHAKNTVYLQMKRLKPEDTAVYYSNAVRYRFERYDYWGQGTQVTVSS	high polyreactivity
QVQLVESGGGLVQAGGSLRLSCASSGFIFRGYAMGWYRQAPGKERELVAVISRSGTSTYYADSVKGRFTISRDNAKITVYLQMNSLKPEDTAVYYCAKEVWPRYIRQAYLSGYESWGQGTQVTVSS	high polyreactivity
